# Assay results reported in the RNAGym collection of RNA variant scans (doi:10.1021/acssynbio.7b00057).
# B1: Pistol ribozyme (parent)
# chain: GGGUCGUUGUUCCAUAAUCGCGUGGAUAUGGCACGCAAGUUUCUACCGGGCACCGUAAAUGUCCGACUGGAGCCGUUCGGGCGGCUAUAAACAGACCUCAGGCCCGAAGCGUGGCGGCACCUGCCGCCGGUGGUAAAAAAGAUCGGAAGAGCACACGUCU
# Variants of: B1
# Experiment: aptazyme ON/OFF ratio, guanine; higher = stronger switching; co-transcriptional cleavage with and without guanine
row,Variant,aptazyme ON/OFF ratio
1,U10C U11C C12U,1.08
2,U7G U8C U10A U11A C12G,1.13
3,U7A U8G G9U U10C U11C C13U,1.07
4,U7G G9C U10G U11A C12A C13G,1.12
5,U7G G9U U10A U11G,3.03
6,U7C U8G G9C U10A U11G C12A,1.05
7,U8A U10A U11G C13A,1.18
8,U7A U8C G9U U10A C12G,1.23
9,U7A U8C U10C U11G C12U,1.3
10,U7A G9C U11A C12A C13G,1.05
11,U8A G9A U11C C12U C13A,1.23
12,U7G U8C G9A U10A C12A C13A,1.23
13,U7G U8G G9U U10A U11C C12U C13G,1.08
14,U7G U8A U11A C13A,1.45
15,U7G U8G G9U U10A C12G C13A,1.07
16,U8C U10A U11A C13U,1.21
17,U7G U8A G9U U10G C12G,1.07
18,U11G C13A,1.05
19,U8A G9A U10G C12U C13A,1.34
20,U7C U8G G9A U10A U11G C13A,1.2
21,U8C G9C U10A U11G C13G,1.2

row,Variant,aptazyme ON/OFF ratio
1,U7C U8A G9A U10C C12A C13G,1.16
2,U7G U8G G9U U11C,3.17
3,U8C G9U U10G U11A C12G,1.22
4,U7C G9U C13A,1.04
5,U7A U8G G9C U11C C13A,1.37
6,U8A G9A U10A C12G,1.17
7,U8C G9C U11A C12G C13U,1.07
8,U7C U8C G9U U10C U11A C12A C13U,1.09
9,U7G U8C G9A,4.1
10,U7G U8C G9C U10A U11G C12U C13G,1.24
11,U8A G9C U11G C13U,1.17
12,U7A U8C G9U U11A C12U C13A,1.37
13,U7C U8G G9U U10C U11G C13U,1.19
14,U7C U8C G9C U10G U11A C13G,1.08
15,G9A U10G U11C C13A,1.16
16,U7C G9A U11A C12A,1.38
17,U7A U8G G9C U11C C12U C13G,1.38
18,U7G G9C U10C U11G C13A,1.19
19,U7C U8C G9C U10A U11G C12G,1.14
20,U7A U8A G9A C12A,1.46
21,U7G U8G G9A U10A U11C C12A C13U,1.09

row,Variant,aptazyme ON/OFF ratio
1,U8C G9C U10C U11C C12A C13U,1.02
2,U8C G9U U10A U11A C12U C13U,1.5
3,U7C U8G G9C U10G U11G C12G,1.13
4,U7A U8G G9A U10A U11A,1.8
5,U7A U8A G9C U10C C12G C13U,1.06
6,U8G U10G U11C C12A C13U,1.09
7,U8G G9C C12G,1.05
8,U8G G9A U10G U11G,1.59
9,U8C U11A C13G,1.07
10,U7A U8C G9U U10C C12G C13G,1.33
11,U7A U8G G9U U10C U11C C12U,1.36
12,U7A G9C U10G C12U C13A,1.06
13,G9A U10C C12G C13A,1.23
14,U7A U10A C12G,1.22
15,U7G G9U U10A U11C C12A C13G,1.21
16,U7A U8A G9C U11C C12G,1.1
17,U7A U8C U10A U11A C12U C13U,1.17
18,U7C U8C G9C U10G U11C C12U,1.19
19,U7C G9C U10A C12U C13U,1.04
20,U7C U10C U11A C12U C13G,1.32
21,U7C U8A G9A U10C U11A C12A C13G,1.1

row,Variant,aptazyme ON/OFF ratio
1,U7A U8C G9C U11A,1.11
2,G9U U10G U11A,1.2
3,G9U U10G U11G,1.55
4,U7A G9A U10C U11A C12U C13U,1.22
5,U7G U8G G9A U10A C12A C13U,1.06
6,U10C U11C C12G C13U,1.11
7,U7A G9C U10G U11C C13U,1.03
8,U7G G9C U10A U11C C12G,1.27
9,G9A U10A C12U C13A,1.39
10,U8A G9C C13G,1.04
11,U8A G9U U11G C13G,1.08
12,U7A U8C U10A U11G C13G,1.24
13,U7A U10C C12G C13A,1.29
14,U7C U8C G9U U10C C12A,1.29
15,U7G U8A G9C C13A,1.04
16,U8A U11A C12A,1.07
17,U8G G9C U10C C12U C13G,1.05
18,U8C G9C U11G C12G C13G,1.12
19,U7C U8C G9U U10G U11A C12G C13G,1.18
20,U8A G9C C12U,1.3
21,U7A U8G U10G U11A C12A C13U,1.34
